Experimental data reported in article doi:10.1101/439331.
Read-outs that look alike come from different tables or passages of the source. Values belong to the molecule of their own block, whether it stands above or below them.

Tests used:
[1] = molecular target: SCARECROW (SCR)-mCherry translational fusion (SCR:SCR-mCherry) (Arabidopsis) (UniProt Q9M384); test: Cross-Correlation Number and Brightness
[2] = molecular target: SCARECROW (SCR)-mCherry translational fusion (SCR:SCR-mCherry) (Arabidopsis) (UniProt Q9M384); test: Cross-Correlation Number and Brightness; remark: listed apart in the source
[3] = molecular target: T1, SCARECROW (SCR)-GFP translational fusion (SCR:SCR-GFP) (Arabidopsis), Q9M384; test: Number and Brightness; details: remark: other sources report otherwise
T1 chain: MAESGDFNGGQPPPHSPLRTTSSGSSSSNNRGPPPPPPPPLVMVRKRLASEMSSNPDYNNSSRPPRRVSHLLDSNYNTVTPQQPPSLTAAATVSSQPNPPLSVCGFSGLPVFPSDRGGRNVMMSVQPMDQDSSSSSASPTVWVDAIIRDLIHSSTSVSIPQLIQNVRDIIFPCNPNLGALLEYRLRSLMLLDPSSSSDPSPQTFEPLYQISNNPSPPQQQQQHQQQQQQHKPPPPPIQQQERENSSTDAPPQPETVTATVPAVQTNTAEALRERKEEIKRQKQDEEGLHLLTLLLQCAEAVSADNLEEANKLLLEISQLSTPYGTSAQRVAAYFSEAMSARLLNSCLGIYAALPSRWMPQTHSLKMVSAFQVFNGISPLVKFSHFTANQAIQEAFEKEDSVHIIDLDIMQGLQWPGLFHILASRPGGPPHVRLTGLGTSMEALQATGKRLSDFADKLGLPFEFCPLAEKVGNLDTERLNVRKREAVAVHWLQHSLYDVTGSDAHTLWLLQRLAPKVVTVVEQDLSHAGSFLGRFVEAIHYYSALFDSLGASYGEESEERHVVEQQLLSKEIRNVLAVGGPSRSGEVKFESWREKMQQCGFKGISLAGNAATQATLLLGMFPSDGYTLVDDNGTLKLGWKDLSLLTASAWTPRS

[4] = molecular target: T1, SCARECROW (SCR)-GFP translational …; test: Number and Brightness; details: remark: other sources report otherwise
[5] = molecular target: SHORTROOT (SHR)-GFP translational fusion (SHR:SHR-GFP) (Arabidopsis) (UniProt Q9SZF7); test: Number and Brightness

percent of SHR-SCR complexes that are 1 SHR: 1 SCR [1]: > 90% | percent of SHR-SCR complexes that are 1 SHR: 2 SCR [1]: 7% | binding score of the 2 SHR: 2 SCR complex [2]: 1 | percent of SHR-SCR complexes that are 1 SHR: 1 SCR [2]: > 90% | percent of SHR-SCR complexes that are 1 SHR: 2 SCR [2]: < 5% | percent of SHR-SCR complexes that are 2 SHR: 1 SCR [2]: 7% | percent of SHR-SCR complexes that are 2 SHR: 2 SCR [2]: < 1%
Molecule: SHORTROOT (SHR)-GFP translational fusion (SHR:SHR-GFP) (from UniProt Q9SZF7 1-531) (natural protein)

percent homodimer [3]: 17.3% | stoichiometry N [3]: 2 | percent homodimer [4]: 6.6%
B1: SCARECROW (SCR)-GFP translational fusion (SCR:SCR-GFP), Q9M384 1-653 (natural protein)
chain: T1 chain

percent homodimer without m4 (scr4 mutant) [5]: < 1%
B2: SHORTROOT (SHR)-GFP translational fusion (SHR:SHR-GFP) (natural protein)
chain: MDTLFRLVSLQQQQQSDSIITNQSSLSRTSTTTTGSPQTAYHYNFPQNDVVEECFNFFMDEEDLSSSSSHHNHHNHNNPNTYYSPFTTPTQYHPATSSTPSSTAAAAALASPYSSSGHHNDPSAFSIPQTPPSFDFSANAKWADSVLLEAARAFSDKDTARAQQILWTLNELSSPYGDTEQKLASYFLQALFNRMTGSGERCYRTMVTAAATEKTCSFESTRKTVLKFQEVSPWATFGHVAANGAILEAVDGEAKIHIVDISSTFCTQWPTLLEALATRSDDTPHLRLTTVVVANKFVNDQTASHRMMKEIGNRMEKFARLMGVPFKFNIIHHVGDLSEFDLNELDVKPDEVLAINCVGAMHGIASRGSPRDAVISSFRRLRPRIVTVVEEEADLVGEEEGGFDDEFLRGFGECLRWFRVCFESWEESFPRTSNERLMLERAAGRAIVDLVACEPSDSTERRETARKWSRRMRNSGFGAVGYSDEVADDVRALLRRYKEGVWSMVQCPDAAGIFLCWRDQPVVWASAWRPT
